Values of other authors in publication PMC8461181.

Target: GnIH (Coturnix japonica) (UniProt Q9DGD4)
Assay: Scatchard analysis

GPR147 (from UniProt Q9GZQ6)
Kd: 0.752 nM
